Test results from publication PMC4258549.

B1: complement component C2, recombinant, full-length (natural protein)
chain: APSCPQNVNISGGTFTLSHGWAPGSLLTYSCPQGLYPSPASRLCKSSGQWQTPGATRSLSKAVCKPVRCPAPVSFENGIYTPRLGSYPVGGNVSFECEDGFILRGSPVRQCRPNGMWDGETAVCDNGAGHCPNPGISLGAVRTGFRFGHGDKVRYRCSSNLVLTGSSERECQGNGVWSGTEPICRQPYSYDFPEDVAPALGTSFSHMLGATNPTQKTKESLGRKIQIQRSGHLNLYLLLDCSQSVSENDFLIFKESASLMVDRIFSFEINVSVAIITFASEPKVLMSVLNDNSRDMTEVISSLENANYKDHENGTGTNTYAALNSVYLMMNNQMRLLGMETMAWQEIRHAIILLTDGKSNMGGSPKTAVDHIREILNINQKRNDYLDIYAIGVGKLDVDWRELNELGSKKDGERHAFILQDTKALHQVFEHMLDVSKLTDTICGVGNMSANASDQERTPWHVTIKPKSQETCRGALISDQWVLTAAHCFRDGNDHSLWRVNVGDPKSQWGKEFLIEKAVISPGFDVFAKKNQGILEFYGDDIALLKLAQKVKMSTHARPICLPCTMEANLALRRPQGSTCRDHENELLNKQSVPAHFVALNGSKLNINLKMGVEWTSCAEVVSQEKTMFPNLTDVREVVTDQFLCSGTQEDESPCKGESGGAVFLERRFRFFQVGLVSWGLYNPCLGSADKNSRKRAPRSKVPPPRDFHINLFRMQPWLRQHLGDVLNFLPL
B2: extracellular adherence protein (Eap), recombinant, full-length, untagged (natural protein)
chain: AAKPLDKSSSTLHHGHSNIQIPYTITVNGTSQNILSSLTFNKNQNISYKDIENKVKSVLYFNRGISDIDLRLSKQAEYTVHFKNGTKRVIDLKSGIYTADLINTSDIKAISVNVDTKKQPKDKAKANVQVPYTITVNGTSQNILSNLTFNKNQNISYKDLEGKVKSVLESNRGITDVDLRLSKQAKYTVNFKNGTKKVIDLKSGIYTANLINSSDIKSININVDTKKHIENKAKRNYQVPYSINLNGTSTNILSNLSFSNKPWTNYKNLTSQIKSVLKHDRGISEQDLKYAKKAYYTVYFKNGGKRILQLNSKNYTANLVHAKDVKRIEITVKTGTKAKADRYVPYTIAVNGTSTPILSKLKISNKQLISYKYLNDKVKSVLKSERGISDLDLKFAKQAKYTVYFKNGKKQVVNLKSDIFTPNLFSAKDIKKIDIDVKQYTKSKKK

Columns and labels:
biotinylated C4b (human) [1] = assay: AlphaScreen or HTRF
biotinylated C4b (human) [2] = assay: AlphaScreen or HTRF; remark: listed apart in the source
[3] = biological target: complement component C4b (human); assay: AUC
biotinylated C4b (human) [4] = assay: SPR

Binder	IC50 (biotinylated C4b (human) [1])	IC50 (biotinylated C4b (human) [2])	stoichiometry N [3]	IC50 (biotinylated C4b (human) [4])	Kd (biotinylated C4b (human) [2])
B1	180 nM	460 nM	–	–	–
B2	–	–	1	50 nM	185 nM
